Assay results as given in patent US20210095002A1 (Hoffmann-La Roche, published 2021).

How the values were obtained:
murine FAP = biological target: T1, murine FAP (mouse, UniProt P97321 27-761); assay: SPR simultaneous binding, figure legend (FIG. 2C)
T1 construct: also called mouse FAP
Description: The capacity of binding simultaneously murine 4-1BB Fc(kih) and murine FAP was assessed by surface plasmon resonance (SPR) in the manner as described in WO 2016/075278 A1. All SPR experiments were performed on a Biacore T200 at 25° C. with HBS-EP as running buffer (0.01 M HEPES pH 7.4, 0.15 M NaCl, 3 mM EDTA, 0.005% Surfactant P20, Biacore, Freiburg/Germany). Biotinylated murine 4-1BB Fc(kih) was directly coupled to a flow cell of a streptavidin (SA) sensor chip. Immobilization levels up to 600 resonance units (RU) were used.
The FAP-targeted 4-1BB constructs were passed at a concentration range of 200 nM with a flow of 30 μL/minute through the flow cells over 90 seconds and dissociation was set to zero sec. Murine FAP was injected as second analyte with a flow of 30 μL/minute through the flow cells over 90 seconds at a concentration of 500 nM. The dissociation was monitored for 120 sec. Bulk refractive index differences were corrected for by subtracting the response obtained in a reference flow cell, where no protein was immobilized.

[1] = biological target: T2, biotinylated murine 4-1BB Fc(kih) (murine, UniProt P20334 24-187, biotinylated); assay: SPR (Biacore T200, 25 C): biotinylated murine 4-1BB Fc(kih) on SA chip, construct at 200 nM as first analyte, murine FAP at 500 nM as second analyte
T2 construct: also called immobilized murine 4-1BB
T2 sequence: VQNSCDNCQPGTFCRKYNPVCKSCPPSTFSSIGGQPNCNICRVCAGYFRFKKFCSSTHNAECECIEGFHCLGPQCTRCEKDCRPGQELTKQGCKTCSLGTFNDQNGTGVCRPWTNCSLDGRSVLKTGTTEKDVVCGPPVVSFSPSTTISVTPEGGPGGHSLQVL

T1 sequence (P97321 27-761 limits assumed): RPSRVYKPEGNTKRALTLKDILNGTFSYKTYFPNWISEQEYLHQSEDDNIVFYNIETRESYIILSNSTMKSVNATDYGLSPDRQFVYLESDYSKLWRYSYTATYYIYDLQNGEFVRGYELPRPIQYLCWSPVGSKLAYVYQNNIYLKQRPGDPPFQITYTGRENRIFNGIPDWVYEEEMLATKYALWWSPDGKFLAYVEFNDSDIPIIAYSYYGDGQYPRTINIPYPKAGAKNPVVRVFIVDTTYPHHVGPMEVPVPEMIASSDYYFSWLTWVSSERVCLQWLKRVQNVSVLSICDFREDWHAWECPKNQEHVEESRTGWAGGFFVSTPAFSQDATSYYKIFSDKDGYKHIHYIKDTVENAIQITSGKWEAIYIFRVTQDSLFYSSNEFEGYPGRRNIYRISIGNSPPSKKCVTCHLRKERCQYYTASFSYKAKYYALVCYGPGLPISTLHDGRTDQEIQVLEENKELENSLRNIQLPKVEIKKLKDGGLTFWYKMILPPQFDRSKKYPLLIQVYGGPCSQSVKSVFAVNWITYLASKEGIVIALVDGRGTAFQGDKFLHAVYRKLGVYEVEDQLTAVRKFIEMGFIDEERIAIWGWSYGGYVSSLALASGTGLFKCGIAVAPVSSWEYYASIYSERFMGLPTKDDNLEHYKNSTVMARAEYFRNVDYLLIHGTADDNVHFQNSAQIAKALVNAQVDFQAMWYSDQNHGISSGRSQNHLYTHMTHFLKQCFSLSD

binding result (murine FAP): binds
binding result [1]: binds
B1: 4-1BB (MU137-1)/FAP(28H1) DAPG IgG1 2+1 (Fc-DD-VL), named muFAP-4-1BB (bispecific antibody)
heavy 1: DVQLVESGGGLVQPGRSLKLSCAASGFIFSYFDMAWVRQAPTKGLEWVASISPSGDIPYYRDSVKGRFTVSRENAKSSLYLQMDSLRSEDTATYYCARRSYGGYSELDYWGQGVMVTVSSAKTTPPSVYPLAPGSAAQTNSMVTLGCLVKGYFPEPVTVTWNSGSLSSGVHTFPAVLQSDLYTLSSSVTVPSSTWPSQTVTCNVAHPASSTKVDKKIVPRDCGCKPCICTVPEVSSVFIFPPKPKDVLTITLTPKVTCVVVAISKDDPEVQFSWFVDDVEVHTAQTKPREEQINSTFRSVSELPIMHQDWLNGKEFKCRVNSAAFGAPIEKTISKTKGRPKAPQVYTIPPPKEQMAKDKVSLTCMITNFFPEDITVEWQWNGQPAENYDNTQPIMDTDGSYFVYSDLNVQKSNWEAGNTFTCSVLHEGLHNHHTEKSLSHSPGGGGGSGGGGSGGGGSGGGGSEIVLTQSPGTLSLSPGERATLSCRASQSVSRSYLAWYQQKPGQAPRLLIIGASTRATGIPDRFSGSGSGTDFTLTISRLEPEDFAVYYCQQGQVIPPTFGQGTKVEIK
heavy 2: DVQLVESGGGLVQPGRSLKLSCAASGFIFSYFDMAWVRQAPTKGLEWVASISPSGDIPYYRDSVKGRFTVSRENAKSSLYLQMDSLRSEDTATYYCARRSYGGYSELDYWGQGVMVTVSSAKTTPPSVYPLAPGSAAQTNSMVTLGCLVKGYFPEPVTVTWNSGSLSSGVHTFPAVLQSDLYTLSSSVTVPSSTWPSQTVTCNVAHPASSTKVDKKIVPRDCGCKPCICTVPEVSSVFIFPPKPKDVLTITLTPKVTCVVVAISKDDPEVQFSWFVDDVEVHTAQTKPREEQINSTFRSVSELPIMHQDWLNGKEFKCRVNSAAFGAPIEKTISKTKGRPKAPQVYTIPPPKKQMAKDKVSLTCMITNFFPEDITVEWQWNGQPAENYKNTQPIMKTDGSYFVYSKLNVQKSNWEAGNTFTCSVLHEGLHNHHTEKSLSHSPGGGGGSGGGGSGGGGSGGGGSEVQLLESGGGLVQPGGSLRLSCAASGFTFSSHAMSWVRQAPGKGLEWVSAIWASGEQYYADSVKGRFTISRDNSKNTLYLQMNSLRAEDTAVYYCAKGWLGNFDYWGQGTLVTVSS
light: DIQMTQSPASLSASLEEIVTITCQASQDIGNWLAWYHQKPGKSPQLLIYGTSSLADGVPSRFSGSSSGSQYSLKISRLQVEDIGIYYCLQAYGAPWTFGGGTKLELKRADAAPTVSIFPPSSEQLTSGGASVVCFLNNFYPKDINVKWKIDGSERQNGVLNSWTDQDSKDSTYSMSSTLTLTKDEYERHNSYTCEATHKTSTSPIVKSFNRNEC
notes: Mouse IgG1 DAPG (D265A, P329G) with DDKK heterodimerisation; It has two anti-mouse-4-1BB Fabs (MU137-1) and one anti-FAP (28H1) VH/VL fused to the Fc C-termini; also called mouse surrogate muFAP-4-1BB; murine bispecific FAP-4-1BB antibody
